We go through 29 molecules from patent US20210047402A1 (TENEOBIO, published 2021).

T1: human CD22 (human, UniProt P20273 20-687, limits assumed)
T1 construct: also called SIGLEC-2; human CD22 protein
T1 sequence (looked up): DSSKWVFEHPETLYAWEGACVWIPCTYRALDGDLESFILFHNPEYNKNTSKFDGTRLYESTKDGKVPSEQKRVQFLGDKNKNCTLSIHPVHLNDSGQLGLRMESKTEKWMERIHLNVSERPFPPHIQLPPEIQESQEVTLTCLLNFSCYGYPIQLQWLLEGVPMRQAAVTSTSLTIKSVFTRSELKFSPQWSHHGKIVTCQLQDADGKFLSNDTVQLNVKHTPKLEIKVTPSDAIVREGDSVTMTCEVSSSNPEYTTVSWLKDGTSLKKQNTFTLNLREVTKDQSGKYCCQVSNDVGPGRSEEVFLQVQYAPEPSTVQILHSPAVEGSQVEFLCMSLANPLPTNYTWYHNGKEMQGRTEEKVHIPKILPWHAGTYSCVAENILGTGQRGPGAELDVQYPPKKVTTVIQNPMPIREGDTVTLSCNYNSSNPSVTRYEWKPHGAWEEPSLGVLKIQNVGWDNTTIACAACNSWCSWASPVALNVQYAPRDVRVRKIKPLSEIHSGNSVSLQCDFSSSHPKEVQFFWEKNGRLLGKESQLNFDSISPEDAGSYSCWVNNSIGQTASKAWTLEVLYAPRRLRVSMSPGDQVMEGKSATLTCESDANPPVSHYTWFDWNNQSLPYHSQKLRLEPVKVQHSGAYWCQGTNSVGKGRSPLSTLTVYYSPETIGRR

B1: anti-CD22 heavy chain-only antibody Clone ID 335219 (antibody, V domains shown)
VH: QLQLQESGPGLVKPSETLSLTCTVSGGSISSSSYYWGWIRQPPGKGLEWIGSIYYSGVTYYNPSLKNRVTISVDTSKNQFSLKLSSVTAADTAVYYCTREDSSNWRSRGQGTLVTVSS
notes: Heavy chain-only antibody (UniAb), no light chain
B2: anti-CD22 heavy chain-only antibody Clone ID 335301 (antibody, V domains shown)
VH: QLQLQESGPGLVKPSETLSLTCTVSGDSISSGDYYWGWIRQPPGKGLEWIGNIYYSGATYYNPSLKNRVTISVDTSKNQFSLKLSSVTAADTAVYYCTREDSSSWRSRGQGTLVTVSS
notes: as for B1
B3: anti-CD22 heavy chain-only antibody Clone ID 335236 (antibody, V domains shown)
VH: QLQLQESGPGLVKPSETLSLTCTVSGGSISSSSYYWGWIRQPPGKGLEWIGSIYYSGSTYYNPSLKSRVTISVDTSKNQFSLKLSSVTAADTAVYYCTREDSSNWRSRGQGTLVTVSS
notes: as for B1
B4: anti-CD22 heavy chain-only antibody Clone ID 335232 (antibody, V domains shown)
VH: QLQLQESGPGLVKPSETLSLTCTVSGDSISSGDYYWGWIRQPPGKGLEWIGHIYYSGATYYNPSLKNRVTISVDTSRNQSSLNLSSVTAADTAVYYCTREDSSNWRSRGQGTLVTVSS
notes: as for B1
B5: anti-CD22 heavy chain-only antibody Clone ID 335283 (antibody, V domains shown)
VH: QLQLQESGPGLVKPSETLSLTCTVSGGSISSSSYYWGWIRQPPGKGLEWIGSIYYSGATYYNPSLKNRVTISVDTSKNQFSLKLSSVTAADTAVYYCTREDSSSWRSRGQGTLVTVSS
notes: as for B1
B6: anti-CD22 heavy chain-only antibody Clone ID 335323 (antibody, V domains shown)
VH: QLQLQESGPGLVKPSETLSLTCTVSGDSISSGGYYWGWIRQPPGKGLEWIGSIYYSGSTYYNPSLKNRVTISVDTSKNQFSLKLSSVTAADTAVYYCTREDSSSWRSRGQGTLVTVSS
notes: as for B1
B7: anti-CD22 heavy chain-only antibody Clone ID 335316 (antibody, V domains shown)
VH: QLQLQESGPGLVKPSETLSLTCTVSGGSISSSSYYWGWIRQPPGKGLEWIGHIYYSGATYYNPSLKNRVTISVDTSKNQFSLKLSSVTAADTAVYYCTREDSSSWRSRGQGTLVTVSS
notes: as for B1
B8: anti-CD22 heavy chain-only antibody Clone ID 335254 (antibody, V domains shown)
VH: QLQLQESGPGLVKPSETLSLTCTVSGDSISSGDYYWGWIRQPPGKGLEWIGHIYYSGVTYYNPSLKNRVTISVDTSKNQFSLKLSSVTAADTAVYYCTREDSSSWRSRGQGTLVTVSS
notes: as for B1
B9: anti-CD22 heavy chain-only antibody Clone ID 335220 (antibody, V domains shown)
VH: QLQLQESGPGLVKPSETLSLTCTVSGGSISSSSYYWGWIRQPPGKGLEWIGSIYYSGSTYYNPSLKNRVTISVDTSKNQFSLKLSSVTAADTAVYYCTREDSSNWRSRGQGTLVTVSS
notes: as for B1
B10: anti-CD22 heavy chain-only antibody Clone ID 335297 (antibody, V domains shown)
VH: QLQLQESGPGLVKPSETLSLTCTVSGGSISSSSYYWGWIRQPPGKGLEWIGHIYYSGATYYNPSLKNRVTISVDTSRNQFSLNLSSVTAADTAVYYCTREDSSSWRSRGQGTLVTVSS
notes: as for B1
B11: anti-CD22 heavy chain-only antibody Clone ID 335226 (antibody, V domains shown)
VH: QLQLQESGPGLVKPSETLSLTCTVSGDSISSSSYYWGWIRQPPGKGLEWIGSIYYSGSTYYNPSLKSRVTISVDTSKNQFSLKLSSVTAADTAVYYCTREDSSNWRSRGQGTLVTVSS
notes: as for B1
B12: anti-CD22 heavy chain-only antibody Clone ID 335233 (antibody, V domains shown)
VH: QLQLQESGPGLVKPSETLSLTCTVSGDSISSGDYYWGWIRQPPGKGLEWIGSIYYSGSTYYNPSLKSRVTISVDTSKNQFSLKLSSVTAADTAVYYCTREDSSNWRSRGQGTLVTVSS
notes: as for B1
B13: anti-CD22 heavy chain-only antibody Clone ID 335244 (antibody, V domains shown)
VH: QLQLQESGPGLVKPSETLSLTCTVSGDSISSGDYYWGWIRQPPGKGLEWIGHIYYSGATYYNPSLKNRVTISVDTSRNQFSLNLSSVTAADTAVYYCTREDSSSWRSRGQGTLVTVSS
notes: as for B1
B14: anti-CD22 heavy chain-only antibody Clone ID 335224 (antibody, V domains shown)
VH: QLQLQESGPGLVKPSETLSLTCTVSGDSISSGDYYWGWIRQPPGKGLEWIGSIYYTGSTYYNPSLKSRVTISVDTSKNQFSLKLSSVTAADTAVYYCTREDSSNWRSRGQGTLVTVSS
notes: as for B1
B15: anti-CD22 heavy chain-only antibody Clone ID 335261 (antibody, V domains shown)
VH: QLQLQESGPGLVKPSETLSLTCTVSGDSISSGDYYWGWIRQPPGKGLEWIGHIYYSGATYYNPSLENRVTISVDTSKNQFSLKLSSVTAADTAVYYCTREDSSSWRSRGQGTLVTVSS
notes: as for B1
B16: anti-CD22 heavy chain-only antibody Clone ID 335245 (antibody, V domains shown)
VH: QLQLQESGPGLVKPSETLSLTCTVSGDSISSGDYYWGWIRQPPGKGLEWIGHIYYSGATYYNPSLKNRVTISVDTSKNQFSLKLSSVTAADTAVYYCTREDSSSWRSRGQGTLVTVSS
notes: as for B1
B17: anti-CD22 heavy chain-only antibody Clone ID 335293 (antibody, V domains shown)
VH: QLQLQESGPGLVKPSETLSLTCTVSGDSISSGDYYWGWIRQPPGKGLEWIGHIYYSGATYYNPSLKNRVTISVDTSRNQFSLKLSSVTAADTAVYYCTREDSSSWRSRGQGTLVTVSS
notes: as for B1
B18: anti-CD22 heavy chain-only antibody Clone ID 335274 (antibody, V domains shown)
VH: QLQLQESGPGLVKPSETLSLTCTVSGGSISSSSYYWGWIRQPPGKGLEWIGSIYYSGSTYYNPSLKSRVTISVDTSRNQFSLNLSSVTAADTAVYYCTREDSSSWRSRGQGTLVTVSS
notes: as for B1
B19: anti-CD22 heavy chain-only antibody Clone ID 335242 (antibody, V domains shown)
VH: QLQLQESGPGLVKPSETLSLTCTVSGGSISSSSYYWGWIRQPPGKGLEWIGHIYYSGATYYNPSLKNRVTISVDTSRNQFSLNLSSVTAADTAVYYCTREDSSNWRSRGQGTLVTVSS
notes: as for B1
B20: anti-CD22 heavy chain-only antibody Clone ID 335271 (antibody, V domains shown)
VH: QLQLQESGPGLVKPSETLSLTCTVSGDSISSGDYYWGWIRHPPGKGLEWIGHIYYSGATYYNPSLKNRVTISVDTSKNQFSLKLSSVTAADTAVYYCTREDSSSWRSRGQGTLVTVSS
notes: as for B1
B21: anti-CD22 heavy chain-only antibody Clone ID 335230 (antibody, V domains shown)
VH: QLQLQESDPGLVKPSETLSLTCTVSGGSISSSSHYWGWIRQPPGKGLEWIGHIYYSGATYYNPSLKNRVTISVDTSRNQFSLNLSSVTAADTAVYYCTREDSSNWRSRGQGTLVTVSS
notes: as for B1
B22: anti-CD22 heavy chain-only antibody Clone ID 335273 (antibody, V domains shown)
VH: QLQLQESGPGLVKPSETLSLTCTVSGGSISSSSYYWGWIRQPPGKGLEWIGSIYYSGSTYYNPSLKSRVTISVDTSKNQFSLKLSSVTAADTAVYYCTREDSSSWRSRGQGTLVTVSS
notes: as for B1
B23: anti-CD22 heavy chain-only antibody Clone ID 335285 (antibody, V domains shown)
VH: QLQLQESGPGLVKPSETLSLTCTVSGGSISSSSYYWGWIRQPPGKGLEWIGSIYYSGVTYYNPSLKNRVTISVDTSKNQFSLKLSSVTAADTAVYYCTREDSSSWRSRGQGTLVTVSS
notes: as for B1
B24: anti-CD22 heavy chain-only antibody Clone ID 335263 (antibody, V domains shown)
VH: QLQLQESGPGLVKPSETLSLTCTVSGGSINDNSHYWGWIRQPPGKGLEWIGHIYYSGATYYNPSLKNRVTISVDTSRNQFSLNLSSVTAADTAVYYCTREDSSSWRSRGQGTLVTVSS
notes: as for B1
B25: anti-CD22 heavy chain-only antibody Clone ID 335234 (antibody, V domains shown)
VH: QLQLQESGPGLVKPSETLSLTCTVSGDSISSGDYYWGWIRQPPGKGLEWIGNIYYSGATYYNPSLKNRVTISVDTSKNQFSLKLSSVTAADTAVYYCTREDSSNWRSRGQGTLVTVSS
notes: as for B1
B26: anti-CD22 heavy chain-only antibody Clone ID 335307 (antibody, V domains shown)
VH: QLQLQESGPGLVKPSETLSLTCTVSGDSISSGDYYWGWIRQPPGKGLEWIGSIYYSGSTYYNPSLKSRVTISVDTSKNQFSLKLSSVTAADTAVYYCTREDSSSWRSRGQGTLVTVSS
notes: as for B1
B27: anti-CD22 heavy chain-only antibody Clone ID 335266 (antibody, V domains shown)
VH: QLQLQESGPGLVRPSETLSLTCTVSGGSISSSSYYWGWIRQPPGKGLEWIGSIYYSGSTYYNPSLKSRVTISVDTSKNQFSLKLSSVTAADTAVYYCTREDSSSWRSRGQGTLVTVSS
notes: as for B1
B28: anti-CD22 heavy chain-only antibody Clone ID 335260 (antibody, V domains shown)
VH: QLQLQESGPGLVKPSETLSLTCTVSGDSISSGDYYWGWIRQPPGKGLEWIGHIYYSGVTYYNPSLKNRVTISVDTSRNQFSLNLSSVTAADTAVYYCTREDSSSWRSRGQGTLVTVSS
notes: as for B1
B29: anti-CD22 heavy chain-only antibody Clone ID 335295 (antibody, V domains shown)
VH: QLQLQESGPGLVKPSETLSLTCTVSGGSISSSSYYWGWIRQPPGKGLEWIGSIYYSGATYYNPSLKNRVTISVDTSRNQFSLNLSSVTAADTAVYYCTREDSSSWRSRGQGTLVTVSS
notes: as for B1

For the assay, the target named is T1, human CD22. As to the kind of experiment: ELISA protein and cell-binding assays. (In general: In an ELISA, binding on a coated surface is turned into a signal by an enzyme label.)
In the case of B1, the binding result is “binds”.

For B2, the binding result is given as “binds”.

As for B3, the binding result is recorded as “binds”.

Turning to B4, the binding result was “binds”.

On to B5, for which the binding result is listed as “binds”.

As to B6, the binding result is “binds”.

B7: the binding result is listed as “binds”.

Turning to B8, the binding result is “binds”.

Consider B9, for which the binding result is listed as “binds”.

As to B10, the binding result is listed as “binds”.

In the case of B11, the binding result is on record as “binds”.

As to B12, the binding result is given as “binds”.

Consider B13, for which the binding result is “binds”.

For B14, the binding result is “binds”.

In the case of B15, the binding result is on record as “binds”.

Regarding B16, the binding result was “binds”.

Regarding B17, the binding result is “binds”.

With B18, the binding result is given as “binds”.

As for B19, the binding result is recorded as “binds”.

B20: the binding result was “binds”.

As to B21, the binding result is “binds”.

In the case of B22, the binding result is given as “binds”.

As to B23, the binding result is “binds”.

B24: the binding result is “binds”.

For the molecule B25, the binding result is “binds”.

Regarding B26, the binding result is “binds”.

On to B27, for which the binding result is listed as “binds”.

Consider B28, for which the binding result is given as “binds”.

On to B29, for which the binding result was “binds”.
